From paper PMC7291619 come the findings set out here.

This test deals with in vitro-polymerized and paclitaxel-stabilized microtubules (UniProt P02554). As to the kind of experiment: co-sedimentation; varied concentrations of purified His-TbSpef1 incubated with in vitro-assembled, paclitaxel-stabilized microtubules at room temperature for 30 min; diluted in cushion buffer (80 mM PIPES pH 7.0, 1 mM MgCl2, 1 mM EGTA, 60% glycerol, 20 uM paclitaxel); 100,000 x g, 30°C, 30 min; pellets and supernatants immunoblotted.

Some results are limits rather than exact numbers.

Chain of in vitro-polymerized and paclitaxel-stabilized microtubules (P68363 whole entry, chain 1 of 2): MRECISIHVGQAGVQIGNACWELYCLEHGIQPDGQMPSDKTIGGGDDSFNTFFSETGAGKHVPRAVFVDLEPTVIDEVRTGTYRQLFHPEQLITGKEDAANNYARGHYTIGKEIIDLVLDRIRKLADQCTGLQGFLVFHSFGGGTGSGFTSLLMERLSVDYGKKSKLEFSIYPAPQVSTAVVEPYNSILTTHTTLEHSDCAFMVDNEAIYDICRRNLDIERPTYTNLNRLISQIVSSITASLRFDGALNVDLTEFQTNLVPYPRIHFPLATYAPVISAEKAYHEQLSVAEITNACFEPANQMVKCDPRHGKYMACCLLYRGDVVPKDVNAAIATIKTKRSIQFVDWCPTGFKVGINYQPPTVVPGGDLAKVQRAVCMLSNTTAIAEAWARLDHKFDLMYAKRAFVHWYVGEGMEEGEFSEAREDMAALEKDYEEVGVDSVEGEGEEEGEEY
Chain of in vitro-polymerized and paclitaxel-stabilized microtubules (P02554 whole entry, chain 2 of 2): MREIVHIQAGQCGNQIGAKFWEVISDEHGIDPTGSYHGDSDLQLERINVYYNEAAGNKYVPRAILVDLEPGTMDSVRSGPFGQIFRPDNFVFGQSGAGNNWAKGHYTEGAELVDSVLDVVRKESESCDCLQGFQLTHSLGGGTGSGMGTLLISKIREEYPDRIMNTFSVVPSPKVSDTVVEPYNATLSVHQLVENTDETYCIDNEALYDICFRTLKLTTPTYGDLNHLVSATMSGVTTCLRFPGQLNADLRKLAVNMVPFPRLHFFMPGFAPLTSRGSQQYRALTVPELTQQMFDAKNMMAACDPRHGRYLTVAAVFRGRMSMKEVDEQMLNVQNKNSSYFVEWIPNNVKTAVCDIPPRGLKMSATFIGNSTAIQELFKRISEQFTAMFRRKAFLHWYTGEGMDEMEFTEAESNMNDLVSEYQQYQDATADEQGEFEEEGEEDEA

With His-TbSpef1 (natural protein), the stoichiometry N (TbSpef1 per α/β-tubulin dimer) was over 1.
